From PMC4433238
Substitutions are numbered along the chain they refer to. pKd: −log10 of the molar value.

Legend:
Experiment in all cases: EMSA
[1] = molecular target: T1, SmAlkD2 (Streptococcus mutans Clarke (ATCC 25175)) (UniProt A0A0M3KL00); details: EMSA: 100 pM 32P-DNA, 0-50 uM protein, 20 mM Tris-HCl pH 7.5, 100 mM NaCl, 5% glycerol, 2 mM DTT, 0.1 mM EDTA, 0.1 mg/mL BSA, 20 C, 30 min, 5% native gel
T1 sequence: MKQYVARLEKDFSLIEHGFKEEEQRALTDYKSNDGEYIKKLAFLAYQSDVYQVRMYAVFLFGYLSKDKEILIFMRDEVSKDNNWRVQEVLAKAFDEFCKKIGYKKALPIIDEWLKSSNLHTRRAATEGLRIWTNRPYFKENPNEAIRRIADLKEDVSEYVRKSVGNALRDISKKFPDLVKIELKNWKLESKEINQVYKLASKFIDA

[2] = molecular target: T2, BcAlkD (Bacillus cereus) (UniProt Q2PAD8); details: EMSA: 100 pM 32P-DNA, 0-50 uM protein, 20 mM Tris-HCl pH 7.5, 100 mM NaCl, 5% glycerol, 2 mM DTT, 0.1 mM EDTA, 0.1 mg/mL BSA, 20 C, 30 min; 5% native gel
T2 sequence: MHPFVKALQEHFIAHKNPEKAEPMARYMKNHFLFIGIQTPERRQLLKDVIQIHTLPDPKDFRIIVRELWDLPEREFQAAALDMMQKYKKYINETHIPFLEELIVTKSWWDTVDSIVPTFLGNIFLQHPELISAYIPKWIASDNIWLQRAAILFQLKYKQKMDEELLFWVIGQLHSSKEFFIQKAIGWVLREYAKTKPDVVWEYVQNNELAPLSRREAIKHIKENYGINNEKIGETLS

[3] = molecular target: T3, BcAlkD-K29A K29A (Bacillus cereus) (UniProt Q2PAD8); details: N13 of strand 1 = tetrahydrofuran (THF) abasic site mimetic; EMSA: 100 pM 32P-DNA, 0-50 uM protein, 20 mM Tris-HCl pH 7.5, 100 mM NaCl, 5% glycerol, 2 mM DTT, 0.1 mM EDTA, 0.1 mg/mL BSA, 20 C, 30 min; 5% native gel
T3 sequence: T2 sequence with K29A

Work on “GACCACTACACCGATTCCTTACAAC (double strand) [G•C-DNA 25-mer]” yielded a pKd [1] of 4.17 and a pKd [2] of 4.72.

“GACCACTACACCGATTCCTTACAAC / GTTGTAAGGAATTGGTGTAGTGGTC [G•T-DNA 25-mer]” showed a pKd ([1]; G13•T13 mismatch) of 4.28.

With “GACCACTACACCNATTCCTTACAAC / GTTGTAAGGAATCGGTGTAGTGGTC [THF•C-DNA 25-mer]” the pKd ([1]; N13 of strand 1 = tetrahydrofuran (THF) abasic site mimetic) was 5.47 and the binding signal (fold lower affinity than WT) [3] was > 10000.
